Results reported in paper PMC2754075 (Nature cell biology, 2009).

Biological target: MBP-VPRBP (UniProt Q9Y4B6 1-1507)
Assay: pull-down

MBP-VPRBP, sequence (Q9Y4B6 whole entry): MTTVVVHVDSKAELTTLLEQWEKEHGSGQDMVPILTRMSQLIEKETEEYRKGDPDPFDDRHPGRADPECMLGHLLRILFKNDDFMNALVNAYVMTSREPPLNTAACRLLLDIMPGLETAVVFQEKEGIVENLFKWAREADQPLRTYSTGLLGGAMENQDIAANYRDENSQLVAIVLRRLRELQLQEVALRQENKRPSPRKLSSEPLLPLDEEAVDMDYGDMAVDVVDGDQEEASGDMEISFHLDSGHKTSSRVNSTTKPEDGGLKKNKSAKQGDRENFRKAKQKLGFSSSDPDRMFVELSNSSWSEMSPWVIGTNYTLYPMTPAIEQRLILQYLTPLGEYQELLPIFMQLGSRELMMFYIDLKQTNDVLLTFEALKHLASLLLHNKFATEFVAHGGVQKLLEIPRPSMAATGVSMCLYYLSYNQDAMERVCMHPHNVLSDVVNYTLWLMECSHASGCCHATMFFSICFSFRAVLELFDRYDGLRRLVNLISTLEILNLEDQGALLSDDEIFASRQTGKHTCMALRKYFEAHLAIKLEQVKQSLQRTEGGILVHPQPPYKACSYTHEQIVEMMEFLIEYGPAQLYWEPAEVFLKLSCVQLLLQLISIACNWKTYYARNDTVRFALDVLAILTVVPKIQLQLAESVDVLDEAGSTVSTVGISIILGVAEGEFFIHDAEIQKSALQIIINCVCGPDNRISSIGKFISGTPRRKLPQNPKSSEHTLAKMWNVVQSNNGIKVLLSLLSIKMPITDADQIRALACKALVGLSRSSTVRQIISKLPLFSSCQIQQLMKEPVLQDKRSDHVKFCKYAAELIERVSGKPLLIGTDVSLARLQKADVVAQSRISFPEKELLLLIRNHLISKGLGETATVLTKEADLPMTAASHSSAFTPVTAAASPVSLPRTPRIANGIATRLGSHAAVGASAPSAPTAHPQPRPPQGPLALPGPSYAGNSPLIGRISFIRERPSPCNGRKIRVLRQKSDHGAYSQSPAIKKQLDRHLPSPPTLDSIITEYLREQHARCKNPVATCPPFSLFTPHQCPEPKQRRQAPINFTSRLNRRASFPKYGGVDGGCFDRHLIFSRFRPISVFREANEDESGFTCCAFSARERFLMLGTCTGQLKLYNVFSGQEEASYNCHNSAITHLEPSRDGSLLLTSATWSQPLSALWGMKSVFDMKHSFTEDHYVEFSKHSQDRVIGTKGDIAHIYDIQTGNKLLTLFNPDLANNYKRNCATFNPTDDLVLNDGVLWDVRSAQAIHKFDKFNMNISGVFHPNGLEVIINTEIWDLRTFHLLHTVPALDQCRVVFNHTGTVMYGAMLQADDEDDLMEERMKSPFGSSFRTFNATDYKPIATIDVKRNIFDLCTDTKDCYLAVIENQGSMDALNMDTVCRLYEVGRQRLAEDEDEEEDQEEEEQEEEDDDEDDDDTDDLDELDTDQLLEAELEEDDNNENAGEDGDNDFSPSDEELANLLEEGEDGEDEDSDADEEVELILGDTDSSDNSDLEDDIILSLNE

B1: GST-Katanin (natural protein)
chain: MSLLMISENVKLAREYALLGNYDSAMVYYQGVLDQMNKYLYSVKDTYLQQKWQQVWQEINVEAKHVKDIMKTLESFKLDSTPLKAAQHDLPASEGEVWSMPVPVERRPSPGPRKRQSSQYSDPKSHGNRPSTTVRVHRSSAQNVHNDRGKAVRCREKKEQNKGREEKNKSPAAVTEPETNKFDSTGYDKDLVEALERDIISQNPNVRWDDIADLVEAKKLLKEAVVLPMWMPEFFKGIRRPWKGVLMVGPPGTGKTLLAKAVATECKTTFFNVSSSTLTSKYRGESEKLVRLLFEMARFYSPATIFIDEIDSICSRRGTSEEHEASRRVKAELLVQMDGVGGTSENDDPSKMVMVLAATNFPWDIDEALRRRLEKRIYIPLPSAKGREELLRISLRELELADDVDLASIAENMEGYSGADITNVCRDASLMAMRRRIEGLTPEEIRNLSKEEMHMPTTMEDFEMALKKVSKSVSAADIERYEKWIFEFGSC
**Q.** Does B1 bind?
**A.** Result: binds
